This is an account of results in patent US20030012785A1 (WATSON PHARMACEUTICALS, published 2003).

This experiment has as its target T1, IL-2 receptor (mouse, on CTLL-2 cells and murine splenocytes) (mouse, UniProt P01590 22-268; P16297 27-539; P34902 23-369).
T1 sequence (looked up) 1: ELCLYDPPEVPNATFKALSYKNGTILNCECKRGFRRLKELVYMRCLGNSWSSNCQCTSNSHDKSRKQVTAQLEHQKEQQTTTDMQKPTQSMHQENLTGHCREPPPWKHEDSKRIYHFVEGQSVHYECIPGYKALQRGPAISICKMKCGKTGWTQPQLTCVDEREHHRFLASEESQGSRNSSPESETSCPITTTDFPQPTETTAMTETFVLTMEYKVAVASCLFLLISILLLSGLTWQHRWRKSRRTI
T1 sequence (looked up) 2: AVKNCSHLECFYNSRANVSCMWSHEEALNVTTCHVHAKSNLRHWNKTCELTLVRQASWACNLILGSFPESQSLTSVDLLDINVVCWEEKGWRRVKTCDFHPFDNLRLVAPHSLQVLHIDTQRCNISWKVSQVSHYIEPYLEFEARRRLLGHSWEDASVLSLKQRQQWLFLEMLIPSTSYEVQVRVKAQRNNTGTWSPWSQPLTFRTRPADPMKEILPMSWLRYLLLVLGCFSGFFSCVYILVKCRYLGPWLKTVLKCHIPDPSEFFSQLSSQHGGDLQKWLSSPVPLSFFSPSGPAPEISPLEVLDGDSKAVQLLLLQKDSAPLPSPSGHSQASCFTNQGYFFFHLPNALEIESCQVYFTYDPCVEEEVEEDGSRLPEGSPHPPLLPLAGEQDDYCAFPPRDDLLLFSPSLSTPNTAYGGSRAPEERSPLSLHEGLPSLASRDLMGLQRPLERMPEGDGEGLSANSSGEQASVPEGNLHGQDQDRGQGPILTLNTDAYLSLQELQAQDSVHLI
T1 sequence (looked up) 3: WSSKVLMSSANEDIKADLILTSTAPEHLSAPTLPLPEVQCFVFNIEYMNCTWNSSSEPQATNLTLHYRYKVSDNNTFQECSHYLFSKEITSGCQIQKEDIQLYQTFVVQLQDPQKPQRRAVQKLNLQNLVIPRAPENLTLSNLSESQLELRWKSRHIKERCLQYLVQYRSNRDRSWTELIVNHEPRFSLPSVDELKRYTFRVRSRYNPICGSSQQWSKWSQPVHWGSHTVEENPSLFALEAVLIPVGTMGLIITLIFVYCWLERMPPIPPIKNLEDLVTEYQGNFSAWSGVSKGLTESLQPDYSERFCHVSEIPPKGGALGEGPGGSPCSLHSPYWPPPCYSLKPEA
The experiment can be described thus: cell-based or functional assay.

Take TGLNRILLGFLG [unconjugated peptide TT23]: the “Percent inhibition of IL-2 induced proliferation of murine splenocytes (recombinant human IL-2, trypan blue viable cell counts, 48 hours); amount needed relative to PEG-TT23” value was about 100 fold.
